Measured values reported in patent US20070148164A1.

Tests used:
hIgG (human IgG) = test: Biacore, hIgG immobilized
[1] = target: soluble monomeric hFcRn (human) (UniProt P55899); test: Biacore, IgGs immobilized on the same chip, soluble monomeric hFcRn; reference human IgG1
Sequence of soluble monomeric hFcRn (human) (P55899 24-297, chain 1 of 2): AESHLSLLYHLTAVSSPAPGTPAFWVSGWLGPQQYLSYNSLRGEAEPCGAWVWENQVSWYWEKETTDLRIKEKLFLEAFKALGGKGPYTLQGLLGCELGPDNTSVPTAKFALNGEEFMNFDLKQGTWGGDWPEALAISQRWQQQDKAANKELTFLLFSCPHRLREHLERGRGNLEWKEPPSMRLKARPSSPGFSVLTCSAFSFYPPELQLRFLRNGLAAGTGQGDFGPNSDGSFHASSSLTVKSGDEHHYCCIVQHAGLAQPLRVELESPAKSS
Sequence of soluble monomeric hFcRn (human) (P61769 21-119, chain 2 of 2, further chain): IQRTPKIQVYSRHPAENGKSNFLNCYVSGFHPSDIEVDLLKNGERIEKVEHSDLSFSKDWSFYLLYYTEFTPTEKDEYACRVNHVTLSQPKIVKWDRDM

Substance	Kd (hIgG (human IgG))	fold tighter Kd than hIgG [1]
soluble monomeric hFcRn (from UniProt P55899 24-297; P61769 21-119) (receptor)	2 µM	
rabbit IgG1 (antibody)		2 fold
